The target in assay [1] is BSA (UniProt P02769). Briefly: ELISA, BSA wells, control antibody 5 µg/ml (XAB4 set). A general note: An ELISA detects its analyte on a solid surface through an enzyme-linked reagent.
In assay [2] the target is BSA (UniProt P02769). Briefly: ELISA, BSA wells, control antibody 1 µg/ml (XAB1 set).
Assay [3] concerns the target T1, recombinant huIL-20 (Novartis) (human) (UniProt Q9NYY1).
T1 sequence (looked up): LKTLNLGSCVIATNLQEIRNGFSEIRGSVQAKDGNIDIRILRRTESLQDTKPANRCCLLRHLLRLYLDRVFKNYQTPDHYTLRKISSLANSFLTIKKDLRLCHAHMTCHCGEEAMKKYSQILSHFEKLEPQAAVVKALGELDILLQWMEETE
Briefly: ELISA, coated cytokine, antibody 10 µg/ml.

Assay [4] has as its target T2, recombinant huIL-17A (SEQ ID NO: 76) (human, UniProt Q16552 24-155, limits assumed).
T2 sequence: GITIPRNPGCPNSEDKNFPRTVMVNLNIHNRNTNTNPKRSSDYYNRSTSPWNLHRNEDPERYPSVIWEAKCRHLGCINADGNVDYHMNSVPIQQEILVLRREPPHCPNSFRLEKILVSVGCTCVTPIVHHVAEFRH
Briefly: cell-based or functional assay.

Assay [5] addresses T3, recombinant huIL-17A/F heterodimer (human, UniProt Q16552 24-155; Q96PD4 31-163, limits assumed).
T3 sequence (looked up) 1: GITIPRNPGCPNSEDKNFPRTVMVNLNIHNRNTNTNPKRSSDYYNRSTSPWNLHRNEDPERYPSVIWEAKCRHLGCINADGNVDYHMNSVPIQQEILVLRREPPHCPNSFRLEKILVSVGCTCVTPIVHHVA
T3 sequence (looked up) 2: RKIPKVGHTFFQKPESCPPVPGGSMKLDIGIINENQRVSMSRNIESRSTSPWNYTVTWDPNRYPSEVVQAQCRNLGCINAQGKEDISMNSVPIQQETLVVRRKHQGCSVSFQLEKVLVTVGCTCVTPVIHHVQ
Nature of the assay: cell-based or functional assay.

Assay [6] addresses T4, recombinant huIL-17F (human, UniProt Q96PD4 31-163).
T4 sequence: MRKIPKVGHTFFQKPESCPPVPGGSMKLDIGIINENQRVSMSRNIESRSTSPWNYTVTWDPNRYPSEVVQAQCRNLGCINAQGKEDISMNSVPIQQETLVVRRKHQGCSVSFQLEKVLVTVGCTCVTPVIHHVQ
Nature of the assay: cell-based or functional assay.

Assay [7] deals with T2, recombinant huIL-17A (SEQ ID NO: 76). Briefly: cell-based or functional assay. The source holds these as a separate data set.
In assay [8] the target is T5, recombinant mIL-17A (mouse, UniProt Q62386 26-158).
T5 sequence: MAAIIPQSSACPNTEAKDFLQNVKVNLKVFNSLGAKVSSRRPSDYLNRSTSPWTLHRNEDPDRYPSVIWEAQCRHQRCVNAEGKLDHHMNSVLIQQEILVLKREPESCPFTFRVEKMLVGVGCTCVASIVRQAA
Nature of the assay: cell-based or functional assay.

Assay [9] deals with T6, rat IL-17A (rat, UniProt Q61453 18-150).
T6 sequence: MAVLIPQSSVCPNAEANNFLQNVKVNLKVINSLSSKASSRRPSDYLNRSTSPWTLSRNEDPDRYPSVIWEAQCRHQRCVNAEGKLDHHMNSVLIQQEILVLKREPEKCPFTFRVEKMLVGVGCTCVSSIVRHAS
Briefly: cell-based or functional assay.

For assay [10], the target named is T7, recombinant mIL-17A/F (R&D Systems Cat#5390-IL) (mouse, UniProt Q62386 26-158; Q7TNI7 29-161, limits assumed).
T7 sequence (looked up) 1: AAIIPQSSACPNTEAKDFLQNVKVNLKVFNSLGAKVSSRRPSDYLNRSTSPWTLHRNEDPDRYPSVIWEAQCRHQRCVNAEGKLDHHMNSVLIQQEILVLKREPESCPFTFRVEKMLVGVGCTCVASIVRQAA
T7 sequence (looked up) 2: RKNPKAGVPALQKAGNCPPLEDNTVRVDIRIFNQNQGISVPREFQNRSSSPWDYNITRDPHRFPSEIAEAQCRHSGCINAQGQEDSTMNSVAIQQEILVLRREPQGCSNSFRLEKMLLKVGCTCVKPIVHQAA
Briefly: cell-based or functional assay.

Assay [11] addresses T8, recombinant mIL-17F (SEQ ID NO: 84) (mouse, UniProt Q7TNI7 29-161).
T8 sequence: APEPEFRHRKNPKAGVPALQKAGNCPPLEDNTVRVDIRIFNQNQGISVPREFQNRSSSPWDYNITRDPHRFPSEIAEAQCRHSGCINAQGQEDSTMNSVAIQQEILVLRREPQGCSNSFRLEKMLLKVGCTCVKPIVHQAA
Nature of the assay: cell-based or functional assay.

Assay [12] concerns the target T3, recombinant huIL-17A/F heterodimer. Briefly: cell-based or functional assay. This is another data set of the same source.
Assay [13] addresses T4, recombinant huIL-17F. Briefly: cell-based or functional assay. The source holds these as a separate data set.
For assay [14], the target named is T2, recombinant huIL-17A (SEQ ID NO: 76). Nature of the assay: cell-based or functional assay. The source holds these as a separate data set.
For assay [15] the target is unchanged. Briefly: cell-based or functional assay. The source holds these as a separate data set.
Assay [16] addresses T5, recombinant mIL-17A. Briefly: cell-based or functional assay. The source holds these as a separate data set.
Assay [17] deals with T6, rat IL-17A. Nature of the assay: affinity determination (Tables 18-21).
Assay [18] has as its target T9, cynomolgus IL-17A (cynomolgus monkey, UniProt Q16552 24-155 (human entry), limits assumed).
T9 construct: also called cynoIL-17A; cyno IL-17A
T9 chain: T3 sequence (looked up) 1 with T3A, P8S, N34S, I77V, N78K, P104R
Nature of the assay: affinity determination (Tables 18-21).

Assay [19] addresses T10, human IL-17A (construct not specified) (human, UniProt Q16552 24-155, limits assumed).
T10 sequence: T2 sequence
Briefly: cell-based or functional assay.

The text below walks through data of US20170291939A1 (Novartis, published 2017).

Residue numbers refer to the chain shown, from its start. A value given as a limit tells only on which side of the number the result lay.

BSA, sequence (P02769 25-607 limits assumed): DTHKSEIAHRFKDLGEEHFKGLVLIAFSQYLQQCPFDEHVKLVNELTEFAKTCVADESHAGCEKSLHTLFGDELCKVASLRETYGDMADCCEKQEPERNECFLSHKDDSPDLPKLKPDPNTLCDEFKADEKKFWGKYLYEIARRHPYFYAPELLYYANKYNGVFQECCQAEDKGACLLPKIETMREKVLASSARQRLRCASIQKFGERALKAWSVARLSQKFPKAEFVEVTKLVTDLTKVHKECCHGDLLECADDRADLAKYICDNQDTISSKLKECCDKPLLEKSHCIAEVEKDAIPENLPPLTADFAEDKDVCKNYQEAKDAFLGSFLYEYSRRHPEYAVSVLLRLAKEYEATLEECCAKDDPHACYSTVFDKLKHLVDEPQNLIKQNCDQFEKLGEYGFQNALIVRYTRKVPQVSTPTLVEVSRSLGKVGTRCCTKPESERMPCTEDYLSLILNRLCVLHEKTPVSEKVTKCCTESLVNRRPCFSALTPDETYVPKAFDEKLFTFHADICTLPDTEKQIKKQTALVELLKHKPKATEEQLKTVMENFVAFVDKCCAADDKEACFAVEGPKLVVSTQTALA

Take “Control antibody (BSA wells of Table 23; not identified)”: the O.D. is 0.01 O.D in assay [1] and 0.149 O.D in assay [2].

B1: XAB1 (antibody, human IgG1, kappa, V domains shown)
VH: EVQLVESGGDLVQPGGSLRLSCAASGFTFSSYWMSWVRQAPGKGLEWVANIKQDGSEKYYVDSVKGRFTISRDNAKNSLYLQMNSLRAEDTAVYYCARDRGSLYYWGQGTLVTVSS
VL: AIQLTQSPSSLSASVGDRVTITCRPSQGIISALAWYQQKPGKAPKLLIYDASSLENGVPSRFSGSGSGTDFTLTISSLQPEDFATYYCQQFNSYPLTFGGGTKVEIKR
As to B1, the O.D. in [3] is 0.335 O.D. Further, the “IC50, huGROα secretion by BJ cells; rhuIL-17A (0.5 nM)” value in [4] came to 1.39 nM. In addition, the “IC50, huIL-6 secretion by BJ cells; rhuIL-17A/F (300 pM) + rhuTNF-α (6 pM)” value in assay [5] stood at 3.83 nM. For the same molecule, in [6], the “IC50, huIL-6 secretion by BJ cells; rhuIL-17F (10 nM) + rhuTNF-α (6 pM)” value is above 3 µM. For the same molecule, the “IC50, huIL-6 secretion by BJ cells; rhuIL-17A (30 pM) + rhuTNF-α (6 pM)” value in assay [7] stood at 0.47 nM. The “IC50, mouse KC secretion by CMT-93 cells; mIL-17A (1 nM)” value in assay [8] came to 539 nM. For the same molecule, the “IC50, mouse KC secretion by CMT-93 cells; rIL-17A (1 nM)” value in [9] came out at 467 nM. Further, the “IC50, mouse KC secretion by CMT-93 cells; mIL-17A/F (3 nM)” value in assay [10] is above 1000 nM. Also, the “IC50, mouse KC secretion by CMT-93 cells; mIL-17F (30 nM)” value in [11] was above 10000 nM. In addition, the “IC50, hu-GRO-alpha secretion by BJ cells; IL-17A/F (300 pM) + TNF-α (6 pM)” value in [12] turned out to be 6.22 nM. Besides, the “IC50, hu-GRO-alpha secretion by BJ cells; IL-17F (10 nM) + TNF-α (6 pM)” value in [13] is above 3 µM. For the same molecule, the “IC50, hu-GRO-alpha secretion by BJ cells; IL-17A (30 pM) + TNF-α (6 pM)” value in assay [14] stood at 0.72 nM. Moreover, the “IC50, huIL-6 secretion by BJ cells; rhuIL-17A (0.5 nM)” value in assay [15] turned out to be 4.97 nM. Moreover, the “IC50, KC secretion by CMT-93 cells; mIL-17A (0.15 nM)” value in assay [16] stood at 128 nM.

B2: XAB2 (antibody, human IgG1, kappa, V domains shown)
VH: B1 VH
VL: B1 VL with G28V, N56Q, G66V, N92D
notes: full IgG
As for B2, in assay [17], the binding result is recorded as “binds”. Also, in assay [18], the binding result was “binds”. Also, in assay [19], the “EC50, T = 0 weeks” value was 0.045 µg/mL and the “EC50, T = 4 weeks at pH 8, 40° C. (forced deamidation)” value was found to be 47 ng/ml. In [4], the “IC50, huGROα secretion by BJ cells; rhuIL-17A (0.5 nM)” value came to 0.4 nM. Also, the “IC50, huIL-6 secretion by BJ cells; rhuIL-17A (0.5 nM)” value in assay [15] worked out at 0.64 nM. Further, the “IC50, KC secretion by CMT-93 cells; mIL-17A (0.15 nM)” value in assay [16] turned out to be 20.9 nM.
